Experimental data taken from publication PMC12377726 (Proceedings of the National Academy of Sciences of the …, 2025).

Target: eOD-GT8 (engineered outer domain germline-targeting version 8), monomer (HIV-1 gp120 engineered outer domain, …)

Row | Binder | binding result
1 | G001_gp1_V07_VRC01c_2021-0031 (antibody, V domains shown) VH: not shown VL: DIQMTQSPSSLSASVGDRVTITCQASQDISEYLNWYQQKPGKAPKLLIYDASNLETGVPSRFSGSGSGTDFTFTISSLQPEDVATYYCQQYEFFGGGTKVEIK | binds
2 | G001_gp1_V07_VRC01c_2021-0036 (antibody, V domains shown) VH: QVQLVQSGAEVKKPGASVKVSCKASGYTFTGYYMHWVRQAPGQGLEWMGWINPNSGGTNYAQKFQDWVTMTRDTSISTAYMEVSRLKSDDTAVYYCARGRAGTTAWWYFDLWGRGALVTVSS VL: DIQMTQSPSSLSASVGDRVTITCQASQDISNYLNWYQQKPGKAPKLLIYDASNLETGVPSRFSGSGSGTDFTFTISSLQPEDVATYYCQQYDSFGPGTKVDIK | binds
3 | G001_gp1_V07_VRC01c_2021-0038 (antibody, V domains shown) VH: not shown VL: DIQMTQSPSSLSASVGDRVTITCQASQGISNYLNWYQLKPGKAPKLLISDASNLETGVPSRFSGSGSGTDFTFTISSLQPEDIATYYCQQYDYFGPGTTVDIK | binds
4 | G001_gp1_V07_VRC01c_92 (antibody, V domains shown) VH: QVQLVQSGAEVRKPGASVKVSCKASGYTFTDSYMHWVRQAPGQGLEWMGWINPNSGGTNYAQKFQGRVTMTRDTSITTAYMELSRLRFDDTAIYYCATVATIAAPWAFDYWGQGALVTVSS VL: DIQMTQSPSSLSASVGDRVSITCQASQDINNYLNWYQQKPGKAPKLLIYDVSNLQTGVPSRFSGRGSGTDFTFTISSLQPEDSATYYCQQYERFGQGTKLEIK | binds
5 | G001_gp1_V07_VRC01c_2021-0037 (antibody, V domains shown) VH: not shown VL: DIQMTQSPSSLSASVGDRVTITCQASQDISNYLNWYQQKPGKAPKLLIYDASNLETGVPSRFSGSGSGTDFTFTISSLQPEDIATYYCQEYDTFGGGTKVEIK | binds
6 | G001_gp1_V07_VRC01c_2021-0039 (antibody, V domains shown) VH: QVQLVQSGAEVKKPGASVRVSCKASGNTFTDYYMHWVRQAPGQGLEWMGWINPNSGGTNYAQKFQGRVTMTRDTSISTAYMELSRLRSDDTAVYYCASPGAAGQPWGFGYWGQGTLVTVSS VL: DIQMTQSPSSLSASVGDRVTITCQASQDISNYLNWYQQKPGKAPKLLIYDASHLETGVPSRFSGSESGTECTLTISSLQPEDIATYYCQQYEFFGGGTKVEIK | binds
7 | G001_gp1_V07_VRC01c_2021-0048 (antibody, V domains shown) VH: RVQLVQSGAEVKKPGASVKVSCKASGYTFTGYYMHWVRQAPGQGLEWMGWINPNSGGTNYAQKFQGRVTMTRATSISTAYMELSRLRFDDTAVYYCARGGSRGWSLDYWGQGTLVTVSS VL: DIQMTQSPSSLSASVGDRVTITCQASQDISNYLNWYQQKLGKAPKLLIYDASNLETGVPSRFSGSGSGTDFSLTISSLQPEDIATYYCQQYETFGQGTKLEIK | binds
8 | G001_LD_V07A_VRC01c_40 (antibody, V domains shown) VH: not shown VL: DIQMTQSPSSLSASVGDRVTITCQASQDISNYLNWYQQKPGKAPKLLIYDASNLETGVPSRFSGSASGTESSFTISSLQPEDIATYYCQQYETFGPGTKVDIK | binds
9 | G001_gp1_V07_VRC01c_2021-0040 (antibody, V domains shown) VH: QVQLVQSGAEVKKPGASVKVSCKASGYTFTGYYMHWVRQAPGQGLEWMGWINPNSGGSNYAQKFQGRVTMTRDRSITTAYMELSRLRSDDTAVYYCARDHTGTAGWYFDLWGRGTLVTVSS VL: EIVLTQSPGTLSLSPGERATLSCRASQSVSSSYLAWYHQKPGQAPRLLIYGASSRATGIPDRFSGSGSGTDFTLTISRLEPEDFAVYYCQQYETFGQGTKVEIT | binds
10 | G001_gp1_V07_VRC01c_99 (antibody, V domains shown) VH: QVQLVQSGAEVKKPGASVKVSCKASGYTFTDYYMHWVRQAPGQGLEWMGWINPNSGGTNYAQKFQGRVTMTRDTSISTAYMDLSRLRSDDTAMYYCATSPHEYSTSWEFDSWGQGTLVTVSS VL: DIVLTQSPGTLSLSPGERATLSCRASQSVSSSNLAWYQQKPGQAPRLLIYGAFKRATGIPDRFSGSGSGTDFTLTISRLEPEDFAVYYCQQYETFGQGTKVEIK | binds
11 | G001_LD_V07A_VRC01c_65 (antibody, V domains shown) VH: QVQLVQSGAEVKKPGASVKVSCKASGYTFTGYYMHWVRQAPGQGLEWMGWINPNSGGTNYAQKFQGYVTMTRDTSISTAFMELSRLRSDDAAVYYCATSIAAPDSYWYFDLWGRGTLVTVSS VL: EIVLTQSPGTLSLSPGERATLSCRASQSVTSSYLAWYQQKPGQAPRLLIYGASSRATGIPDRFSGSGSGTDFTLTISRLEPEDFAVYYCQQYEFFGQGTKLEIK | binds
12 | G001_gp1_V07_VRC01c_91 (antibody, V domains shown) VH: QVQLVQSGAEVKKPGASVKVSCKASGYTFTDYYIHWVRQAPGQGLEWMGWISPNSGGTNFAQKFQGSVTMTRDTSISTAYMELSRLRSDDTAVYFCARDGGWKRGWGFQFWGQGTLVTVSS VL: QSALTQPPSASGSPGQSVTISCTGTSSDVGDYKYVSWYQQHPGKAPKLVIYEVSKRPSGVPDRFSGSKSGNTASLTVSGLQAEDEADYYCSSYEVFGGGTKLTVL | binds
13 | G001_gp1_V07_VRC01c_2021-0035 (antibody, V domains shown) VH: QVQLVQSGAEVKKPGASVKVSCKASGYTFTDYYLHWVRQAPGQGLEWMGWINPNSGGTNYAQKFQDWVTMTRDTSISTAYMELSRLRSDDTAVYYCARDGLAARWDFDSWGQGTLVTVSS VL: SYELTQPPSVSVAPGQTARITCGGNNIGSKSVHWYQQKPVQAPVLVVYDDGDRPSGIPERFSGSNSGNTATLTISRVEAGDEADYYCQVLEVFGTGTKVTVL | binds
14 | G001_LD_V07A_VRC01c_46 (antibody, V domains shown) VH: QVQLVQSGAEVKKPGASVKVSCKASGYTFTDYYMHWVRQAPGQGLEWMGWINPNSGGTNYAQKFQGWVTMTRDTSISTAYMELTRLRSDDTAVYYCAVRKNGGDCSFCFGYWGQGTLVTVSS VL: QSVLTQPPSVSGAPGQRVTISCTGSSSNIGAGYDVHWYQQLPGTAPKLLIYGNNNRPSGVPDRFSGSKSGTSASLAITGLQAEDEADYYCQSYEMFGGGTKLTVL | binds
15 | G001_gp1_V07_VRC01c_2021-0044 (antibody, V domains shown) VH: not shown VL: QSALTQPASVSGPPGQSITISCTGTSSDFGGHNSVSWYQQHPGKAPKLMIYDVSNRPSGVSNRFSGSKSGNTASLTISGLQAEDEADYYCSSYKVFGGGTKLTVL | binds
16 | G001_gp1_V07_VRC01c_97 (antibody, V domains shown) VH: QVQLVQSGAEVKKPGASVKVSCKASGYSFTDYYMHWVRQAPGQGLEWMGWINPNSGGTNYAQKFQGRVTMTRDTSISTAYMELSRLRSDDTAVYYCASDVEMANRGGWKFDYWGQGTLVTVSS VL: QSALTQPASVSGSPGQSITISCTGTSSDVGSYNLVSWYQQHPGTAPKLMIYEVSKRPSGVSNRFSGSKSGNTASLTISGLQAEDEADYYCCSYEVFGGGTKLTVL | binds
17 | G001_gp1_V07_VRC01c_111 (antibody, V domains shown) VH: QVQLVQSGAEVKKPGASVKVSCKASGYTFTGYYMHWVRQAPGQGLEWMGWIYPNSGGTNYVQEFQGRVTMTRDTSISTAYMELSRLRSDDTAVYYCATDNYTTSSMLLRTWGQGTLVTVSS VL: DIQMTQSPSTLSASVGDRVTITCRASQSISSWLAWYQQKPGKAPKLLIYKASSLESGVPSRFSGSGSGTEFTLTISSLQPDDFATYYCQQYETFGQGTKVEIK | binds
18 | G001_gp1_V07_VRC01c_2021-0033 (antibody, V domains shown) VH: not shown VL: DIQMTQSPSTLSASVGDRVTITCRASQSISSWLAWYQQKPGKAPKLLIYKASSLESGVPSRFSGSGSGTEFTLTISSLQPDDFATYYCQQYETFGQGTKVEIK | binds
19 | G001_gp1_V08_VRC01c_114 (antibody, V domains shown) VH: QVQLVQSGAEVKKPGASGKVSCKASGYTFTDYYMYWVRQAPGQGLEWIGWINPTSGGSNYAQKFQGRVTMTRDTSISTAYMELSRLRSDDTAVYYCARRSEDRKAFDIWGQGTMVTVSS VL: DIQMTQSPSTLSASVGDRVTITCRASQSISSWLAWYQQKPGKAPKLLIYKASSLESGVPSKFSGSGSGTEFTLTISSLQPDDFATYYCQQYDTFGQGTKLEIK | binds
20 | G001_LD_V07A_VRC01c_41 (antibody, V domains shown) VH: QVQLVQSGAEVKKPGASVRVSCRASGYTFSDYYIHWVRQAPGQGLEWMGWINPTSGGTNYAQRFQGRVTMTRDTSISTAYMELSRLRSDDTAVYYCARNLGNSGWYFAWGQGTLVTVSS VL: DIQMTQSPSTLSASVGDRVTITCRASQSISSWLAWYQQKPGKAPKLLIYKASSLESGVPSRFSGSGSGTEFTLTISNLQPDDFGTYYCQQYETFGQGTKVEIK | binds
21 | G001_gp1_V07_VRC01c_2021-0034 (antibody, V domains shown) VH: QVQLVQSGAEVKKPGASVKVSCKASGYTFSGYYMHWVRQAPGQGLEWMGWINPNSGGTNYAQKFQGGVTMTRDTSISTAYMELSSLRSDDTAVYYCAREGGLGATAFDYWGQGTLVSVSS VL: DIQMTQSPSTLSASVGDRVTITCRASQSISSWLAWYQQKPGKAPKLLIYKASSLESGVPSRFSGSGSGTEFTLTISSLQPDDFATYYCQQYETFGQGTKLEIK | binds
22 | G001_gp1_V08_VRC01c_115 (antibody, V domains shown) VH: QVQLVQSGAEVKKPGASVKVFCKTSGYIFTDYYMHWVRQAPGQGLEWMGWINPNSGGTNYAQKFQGRVTMTRDTSISTAYMELSRLRSDDTAVYYCARAYYGDYGDYWGQGTLVTVSS VL: DIVMTQSPDSLAVSLGERATINCKSSQSVLYSSDNKNYLSWYQQKPRQPPKLLIYWASTRESGVPDRFTGSGSGTDFTLTISSLQAEDVAVYYCQQYWTFGQGTKVEIK | binds
23 | G001_gp1_V07_VRC01c_2021-0032 (antibody, V domains shown) VH: not shown VL: EIVMTQSPATLSVSPGERATLSCRASQSVSSNLAWYQQKPGQAPRLLIYGASTRATGIPARFSGSGSGTEFTLTISSLQSEDFAVYYCQQYEFFGPGTKVDIK | binds
24 | G001_gp1_V07_VRC01c_90 (antibody, V domains shown) VH: QVQLVQSGAEVKKPGASVKVSCKASGYTFTDYYMHWVRQAPGQGLEWMGWINPNSGGTNYAQKFQGRVTMTRDTSISTAYVVLTRLRSDDTAVYYCATVEWGGSGWNYDYWGQGTLVTVSS VL: EIVMTQSPATLSVSPGERATLSCRASQSVSSNLAWYQQKPGQAPRLLIYGASTRATGIPARFSGSGSGTEFTLTISSLQSEDFAVYYCQQYETFGQGTKVEIK | binds
25 | G001_gp1_V07_VRC01c_94 (antibody, V domains shown) VH: not shown VL: EIVMTQSPATLSVSPGERATLSCRASQSVSSNLAWYQQKPGQAPRLLIYGASTRATGIPARFSGSGSGTEFTLTISSLQSEDFAVYYCQQYNTFGQGTRLEIK | binds
